Experiment [1] concerns the target T1, cell surface calreticulin on human fibroblastoid M1 cells (human, UniProt P27797 18-417).
T1 sequence (looked up): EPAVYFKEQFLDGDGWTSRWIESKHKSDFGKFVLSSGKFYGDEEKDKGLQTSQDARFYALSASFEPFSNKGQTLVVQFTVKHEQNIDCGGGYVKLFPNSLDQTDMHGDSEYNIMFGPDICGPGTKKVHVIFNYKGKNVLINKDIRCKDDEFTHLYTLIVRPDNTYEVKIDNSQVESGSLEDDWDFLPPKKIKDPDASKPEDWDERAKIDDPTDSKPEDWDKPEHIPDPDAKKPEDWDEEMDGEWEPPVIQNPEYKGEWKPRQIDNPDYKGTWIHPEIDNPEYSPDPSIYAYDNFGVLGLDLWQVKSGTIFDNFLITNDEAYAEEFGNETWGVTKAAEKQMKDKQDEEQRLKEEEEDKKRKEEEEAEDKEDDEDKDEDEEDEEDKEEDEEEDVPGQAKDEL
Put plainly: cell-based or functional assay.

For experiment [2], the target named is T2, recombinant human calreticulin (human, UniProt P27797 18-417).
T2 construct: Expressed in E. coli as a GST fusion; also called Crt; purified recombinant calreticulin
T2 sequence: T1 sequence (looked up)
Description: SPR (Biacore 2000), calreticulin immobilized on CM5. For orientation: Surface plasmon resonance follows binding to a sensor surface in real time, without labels.
Description: Prior to use, biosensor chips CM5 were docked into a Biacore® 2000 and preconditioned in water at 100 μl/min by applying two consecutive 20-μl pulses of 50 mM NaOH, then 10 mM HCl, and finally 0.1% SDS. […] Immobilizations were conducted at 25° C. in HBS-EP (10 mM HEPES, pH7.4, 150 mM NaCl, 1 mM EDTA, 0.005% Surfactant P-20), with a flow of 10 μl/min. The CM5 surface was activated by 7 min injection of 200 mM EDC/50 mM NHS to prepare a high-capacity surface, with manual injection of 100 μg/ml calreticulin until 5500 RU level was approached. Then 100 μl of 1M ethanolamine was used to block remaining activated group.
Calreticulin and peptide binding were performed at 25° C. in binding buffer (10 mM HEPES, pH8.0, 50 mM KCl, 0.5 mM CaCl₂, 1% Triton-X100), with a flow rate of 10 μl/min. […] Binding assays were repeated at least 3 times. Kinetic analysis was performed using Kinetic separate kₐ/kd fitting in BIA evaluation 3.0 software.

Take DKCLA [pentapeptide DKCLA]: the “inhibition of NO induction by Sepharose bead-bound 65-79*0401 in M1 cells; IC50” value in experiment [1] was around 35 µM.
With QKRAE (Synthetic pentapeptide) [pentapeptide QKRAE], the binding result in experiment [2] is recorded as “no binding”.
Turning to KDLLEQKRAAVDTY [peptide 65-78*0401], in experiment [1], the “inhibition of cAMP-mediated (2CA-induced) DNA repair induction in cells; IC50” value was around 0.25 µM.

The record behind these values is patent US20050013820A1 (REGENTS OF THE UNIVERSITY OF MICHIGAN, published 2005).
